Measurements reported in the supplement of paper PMC9112550, “Optimization of the antimicrobial peptide Bac7 by deep mutational scanning” (BMC Biology, 2022).
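Also: peptides expressed intracellularly from a pBAD plasmid library in pooled LB shake-flask culture, induced with 0.3% L-arabinose, DNA abundance read by NGS, three biological replicates, DESeq2 with apeglm shrinkage.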

These sequences were tested on Escherichia coli TOP10 (assay: shrunken log2 fold change of peptide-encoding DNA abundance (4.5 h post-induction vs induction); higher = less antimicrobial activity (less host growth inhibition)). Details: time post-induction: 4.5 h; library: site-saturation at positions 5, 18, 19, 20.
With RRIRSRPPRLPRPRPRPMTIPRP the “shrunken log2 fold change” value was -0.0727. For RRIRSRPPRLPRPRPRPMTNPRP, the “shrunken log2 fold change” value was -0.309. For RRIRSRPPRLPRPRPRPMTQPRP, the “shrunken log2 fold change” value was -0.116. In the case of RRIRSRPPRLPRPRPRPMVKPRP, the “shrunken log2 fold change” value is reported as -0.0162. RRIRSRPPRLPRPRPRPMVNPRP was tested, and the “shrunken log2 fold change” value was 0.00321. With RRIRSRPPRLPRPRPRPMYPPRP the “shrunken log2 fold change” value was -0.124. In the case of RRIRSRPPRLPRPRPRPNDVPRP, the “shrunken log2 fold change” value is reported as -0.134. With RRIRSRPPRLPRPRPRPNGDPRP the “shrunken log2 fold change” value was -0.0155. In the case of RRIRSRPPRLPRPRPRPNHDPRP, the “shrunken log2 fold change” value is reported as -0.69. RRIRSRPPRLPRPRPRPNHPPRP was tested, and the “shrunken log2 fold change” value was -0.0712. In the case of RRIRSRPPRLPRPRPRPNIAPRP, the “shrunken log2 fold change” value is reported as 0.0275. In the case of RRIRSRPPRLPRPRPRPNIEPRP, the “shrunken log2 fold change” value is reported as -0.264. In the case of RRIRSRPPRLPRPRPRPNIGPRP, the “shrunken log2 fold change” value is reported as -0.283. In the case of RRIRSRPPRLPRPRPRPNIRPRP, the “shrunken log2 fold change” value is reported as 0.0389. With RRIRSRPPRLPRPRPRPNLIPRP the “shrunken log2 fold change” value was -0.74. In the case of RRIRSRPPRLPRPRPRPNNDPRP, the “shrunken log2 fold change” value is reported as -0.503. In the case of RRIRSRPPRLPRPRPRPNRVPRP, the “shrunken log2 fold change” value is reported as -0.048. With RRIRSRPPRLPRPRPRPNSQPRP the “shrunken log2 fold change” value was -0.118. For RRIRSRPPRLPRPRPRPNTLPRP, the “shrunken log2 fold change” value was -0.373. In the case of RRIRSRPPRLPRPRPRPNVFPRP, the “shrunken log2 fold change” value is reported as -0.075. With RRIRSRPPRLPRPRPRPNVMPRP the “shrunken log2 fold change” value was -0.204. RRIRSRPPRLPRPRPRPNYHPRP was tested, and the “shrunken log2 fold change” value was -0.742. In the case of RRIRSRPPRLPRPRPRPPACPRP, the “shrunken log2 fold change” value is reported as 0.185. RRIRSRPPRLPRPRPRPPEFPRP was tested, and the “shrunken log2 fold change” value was -0.119. For RRIRSRPPRLPRPRPRPPFVPRP, the “shrunken log2 fold change” value was 0.148. In the case of RRIRSRPPRLPRPRPRPPGDPRP, the “shrunken log2 fold change” value is reported as 0.344. With RRIRSRPPRLPRPRPRPPHVPRP the “shrunken log2 fold change” value was 0.113. RRIRSRPPRLPRPRPRPPIQPRP was tested, and the “shrunken log2 fold change” value was 0.0395. For RRIRSRPPRLPRPRPRPPLPPRP, the “shrunken log2 fold change” value was 0.688. With RRIRSRPPRLPRPRPRPPMLPRP the “shrunken log2 fold change” value was 0.0967. In the case of RRIRSRPPRLPRPRPRPPNRPRP, the “shrunken log2 fold change” value is reported as 0.238. For RRIRSRPPRLPRPRPRPPNWPRP, the “shrunken log2 fold change” value was 0.504. In the case of RRIRSRPPRLPRPRPRPPQDPRP, the “shrunken log2 fold change” value is reported as 0.264. With RRIRSRPPRLPRPRPRPPQTPRP the “shrunken log2 fold change” value was 0.365. RRIRSRPPRLPRPRPRPPSPPRP was tested, and the “shrunken log2 fold change” value was 0.376. In the case of RRIRSRPPRLPRPRPRPPTAPRP, the “shrunken log2 fold change” value is reported as 0.447. With RRIRSRPPRLPRPRPRPPTYPRP the “shrunken log2 fold change” value was -0.243. With RRIRSRPPRLPRPRPRPPWEPRP the “shrunken log2 fold change” value was 0.198. In the case of RRIRSRPPRLPRPRPRPPWFPRP, the “shrunken log2 fold change” value is reported as 0.238. RRIRSRPPRLPRPRPRPPWMPRP was tested, and the “shrunken log2 fold change” value was 0.167. For RRIRSRPPRLPRPRPRPPWPPRP, the “shrunken log2 fold change” value was 0.51. RRIRSRPPRLPRPRPRPPYQPRP was tested, and the “shrunken log2 fold change” value was 0.144. RRIRSRPPRLPRPRPRPQATPRP was tested, and the “shrunken log2 fold change” value was -0.107. With RRIRSRPPRLPRPRPRPQCQPRP the “shrunken log2 fold change” value was -0.146. RRIRSRPPRLPRPRPRPQDTPRP was tested, and the “shrunken log2 fold change” value was -0.265. RRIRSRPPRLPRPRPRPQHMPRP was tested, and the “shrunken log2 fold change” value was -0.336. With RRIRSRPPRLPRPRPRPQHVPRP the “shrunken log2 fold change” value was -0.17. In the case of RRIRSRPPRLPRPRPRPQMDPRP, the “shrunken log2 fold change” value is reported as -0.0665. RRIRSRPPRLPRPRPRPQNGPRP was tested, and the “shrunken log2 fold change” value was -0.535. With RRIRSRPPRLPRPRPRPQQGPRP the “shrunken log2 fold change” value was 0.162. RRIRSRPPRLPRPRPRPQRVPRP was tested, and the “shrunken log2 fold change” value was -0.00684. For RRIRSRPPRLPRPRPRPQRYPRP, the “shrunken log2 fold change” value was -0.167. In the case of RRIRSRPPRLPRPRPRPQTGPRP, the “shrunken log2 fold change” value is reported as 0.0318. For RRIRSRPPRLPRPRPRPQVDPRP, the “shrunken log2 fold change” value was -0.296. RRIRSRPPRLPRPRPRPQVVPRP was tested, and the “shrunken log2 fold change” value was -0.144. With RRIRSRPPRLPRPRPRPQWYPRP the “shrunken log2 fold change” value was -0.73. In the case of RRIRSRPPRLPRPRPRPQYRPRP, the “shrunken log2 fold change” value is reported as -0.234. With RRIRSRPPRLPRPRPRPRCAPRP the “shrunken log2 fold change” value was 0.509. RRIRSRPPRLPRPRPRPRCDPRP was tested, and the “shrunken log2 fold change” value was 0.144. For RRIRSRPPRLPRPRPRPRCSPRP, the “shrunken log2 fold change” value was 0.0579. In the case of RRIRSRPPRLPRPRPRPRDKPRP, the “shrunken log2 fold change” value is reported as 0.0811. RRIRSRPPRLPRPRPRPRELPRP was tested, and the “shrunken log2 fold change” value was 0.0421. RRIRSRPPRLPRPRPRPREMPRP was tested, and the “shrunken log2 fold change” value was 0.159. With RRIRSRPPRLPRPRPRPRENPRP the “shrunken log2 fold change” value was 0.468. In the case of RRIRSRPPRLPRPRPRPRGKPRP, the “shrunken log2 fold change” value is reported as 0.0832. With RRIRSRPPRLPRPRPRPRGTPRP the “shrunken log2 fold change” value was 0.407. RRIRSRPPRLPRPRPRPRICPRP was tested, and the “shrunken log2 fold change” value was -0.191. RRIRSRPPRLPRPRPRPRIRPRP was tested, and the “shrunken log2 fold change” value was -0.0466. With RRIRSRPPRLPRPRPRPRLFPRP the “shrunken log2 fold change” value was 0.376. RRIRSRPPRLPRPRPRPRMEPRP was tested, and the “shrunken log2 fold change” value was 0.0338. For RRIRSRPPRLPRPRPRPRNEPRP, the “shrunken log2 fold change” value was 0.00717. For RRIRSRPPRLPRPRPRPRNFPRP, the “shrunken log2 fold change” value was 0.146. With RRIRSRPPRLPRPRPRPRNHPRP the “shrunken log2 fold change” value was -0.0799. With RRIRSRPPRLPRPRPRPRNLPRP the “shrunken log2 fold change” value was -0.322. For RRIRSRPPRLPRPRPRPRNPPRP, the “shrunken log2 fold change” value was 0.103. With RRIRSRPPRLPRPRPRPRPLPRP the “shrunken log2 fold change” value was 0.171. For RRIRSRPPRLPRPRPRPRQMPRP, the “shrunken log2 fold change” value was 0.38. With RRIRSRPPRLPRPRPRPRREPRP the “shrunken log2 fold change” value was 0.416. With RRIRSRPPRLPRPRPRPRRGPRP the “shrunken log2 fold change” value was 0.538. For RRIRSRPPRLPRPRPRPRRTPRP, the “shrunken log2 fold change” value was 0.183. RRIRSRPPRLPRPRPRPRSEPRP was tested, and the “shrunken log2 fold change” value was 0.0656. RRIRSRPPRLPRPRPRPRSYPRP was tested, and the “shrunken log2 fold change” value was -0.066. With RRIRSRPPRLPRPRPRPRTIPRP the “shrunken log2 fold change” value was -0.141. With RRIRSRPPRLPRPRPRPRYAPRP the “shrunken log2 fold change” value was -0.0842. RRIRSRPPRLPRPRPRPSAGPRP was tested, and the “shrunken log2 fold change” value was 0.191. With RRIRSRPPRLPRPRPRPSDCPRP the “shrunken log2 fold change” value was -0.79. With RRIRSRPPRLPRPRPRPSDFPRP the “shrunken log2 fold change” value was -0.536. For RRIRSRPPRLPRPRPRPSESPRP, the “shrunken log2 fold change” value was -0.198. In the case of RRIRSRPPRLPRPRPRPSFAPRP, the “shrunken log2 fold change” value is reported as 0.0497. In the case of RRIRSRPPRLPRPRPRPSGAPRP, the “shrunken log2 fold change” value is reported as 0.12. For RRIRSRPPRLPRPRPRPSHGPRP, the “shrunken log2 fold change” value was -0.19. In the case of RRIRSRPPRLPRPRPRPSHIPRP, the “shrunken log2 fold change” value is reported as -0.849. RRIRSRPPRLPRPRPRPSHSPRP was tested, and the “shrunken log2 fold change” value was -0.706. In the case of RRIRSRPPRLPRPRPRPSMFPRP, the “shrunken log2 fold change” value is reported as -0.18. With RRIRSRPPRLPRPRPRPSMHPRP the “shrunken log2 fold change” value was 0.402. RRIRSRPPRLPRPRPRPSNQPRP was tested, and the “shrunken log2 fold change” value was -0.242. For RRIRSRPPRLPRPRPRPSPIPRP, the “shrunken log2 fold change” value was -0.467. RRIRSRPPRLPRPRPRPSPLPRP was tested, and the “shrunken log2 fold change” value was -0.324. RRIRSRPPRLPRPRPRPSTAPRP was tested, and the “shrunken log2 fold change” value was -0.0171. RRIRSRPPRLPRPRPRPSTHPRP was tested, and the “shrunken log2 fold change” value was -0.353. With RRIRSRPPRLPRPRPRPSTSPRP the “shrunken log2 fold change” value was -0.455. For RRIRSRPPRLPRPRPRPSVFPRP, the “shrunken log2 fold change” value was -0.23. In the case of RRIRSRPPRLPRPRPRPSVPPRP, the “shrunken log2 fold change” value is reported as -0.634. With RRIRSRPPRLPRPRPRPSWFPRP the “shrunken log2 fold change” value was -0.268. With RRIRSRPPRLPRPRPRPSWRPRP the “shrunken log2 fold change” value was 0.0852. For RRIRSRPPRLPRPRPRPSYPPRP, the “shrunken log2 fold change” value was -0.736. RRIRSRPPRLPRPRPRPTAHPRP was tested, and the “shrunken log2 fold change” value was 0.284. In the case of RRIRSRPPRLPRPRPRPTAMPRP, the “shrunken log2 fold change” value is reported as 0.4. In the case of RRIRSRPPRLPRPRPRPTCIPRP, the “shrunken log2 fold change” value is reported as 0.0869.
